Data reported in paper PMC11106421, “Myosin VI in the nucleolus of neurosecretory PC12 cells: its involvement in the maintenance of nucleolar structure and ribosome organization” (Frontiers in Physiology, 2024).

Biological target: T1, myosin VI (MVI), endogenous in PC12 cells (rat (endogenous in PC12), UniProt D4A5I9 1-1285)
T1 construct: myosin VI heavy chain, endogenous in PC12 cells; also called unconventional myosin VI; source: endogenous, PC12 cells (lysate or fixed cells)
Assay: proximity ligation; Duolink in situ PLA on fixed PC12 cells, rabbit anti-MVI with mouse monoclonal antibodies to the partner; foci counted per nucleus
Settings: partners not purified

T1 sequence (D4A5I9 entry or part of it): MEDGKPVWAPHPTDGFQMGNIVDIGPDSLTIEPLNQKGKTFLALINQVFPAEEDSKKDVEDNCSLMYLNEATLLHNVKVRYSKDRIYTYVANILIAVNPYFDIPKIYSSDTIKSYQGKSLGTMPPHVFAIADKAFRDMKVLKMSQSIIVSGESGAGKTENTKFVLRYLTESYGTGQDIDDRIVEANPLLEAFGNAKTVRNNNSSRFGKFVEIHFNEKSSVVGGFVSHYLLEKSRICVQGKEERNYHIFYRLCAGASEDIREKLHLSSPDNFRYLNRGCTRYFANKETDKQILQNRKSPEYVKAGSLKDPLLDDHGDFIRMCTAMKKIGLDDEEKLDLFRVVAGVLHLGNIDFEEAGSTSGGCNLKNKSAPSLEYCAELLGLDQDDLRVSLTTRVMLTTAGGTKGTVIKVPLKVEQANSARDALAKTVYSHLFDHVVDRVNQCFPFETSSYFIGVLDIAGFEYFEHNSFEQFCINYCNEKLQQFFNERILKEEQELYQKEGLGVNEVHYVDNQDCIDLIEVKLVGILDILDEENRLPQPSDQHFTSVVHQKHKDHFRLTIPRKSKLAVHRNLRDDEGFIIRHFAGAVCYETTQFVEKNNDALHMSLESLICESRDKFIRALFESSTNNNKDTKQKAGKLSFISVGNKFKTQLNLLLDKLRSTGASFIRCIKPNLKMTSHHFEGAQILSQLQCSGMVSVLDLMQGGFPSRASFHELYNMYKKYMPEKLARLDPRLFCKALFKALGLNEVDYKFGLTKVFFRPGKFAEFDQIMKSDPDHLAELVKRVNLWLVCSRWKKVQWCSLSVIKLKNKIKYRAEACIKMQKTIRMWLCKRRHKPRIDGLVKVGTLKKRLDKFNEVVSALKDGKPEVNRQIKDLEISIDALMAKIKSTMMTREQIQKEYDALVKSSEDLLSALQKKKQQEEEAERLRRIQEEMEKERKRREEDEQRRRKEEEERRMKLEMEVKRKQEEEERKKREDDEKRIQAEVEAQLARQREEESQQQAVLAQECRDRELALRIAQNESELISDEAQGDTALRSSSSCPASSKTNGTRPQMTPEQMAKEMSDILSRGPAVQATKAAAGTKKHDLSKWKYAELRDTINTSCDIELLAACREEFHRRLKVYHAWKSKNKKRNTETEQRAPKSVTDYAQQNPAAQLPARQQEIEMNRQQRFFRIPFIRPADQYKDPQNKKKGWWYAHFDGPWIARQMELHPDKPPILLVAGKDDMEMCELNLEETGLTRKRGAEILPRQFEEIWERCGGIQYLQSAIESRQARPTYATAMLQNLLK

Row | Binder | fraction of PLA foci-positive nuclei
1 | UBF (upstream binding factor) (natural protein, rat (endogenous in PC12), UniProt P25977 1-764, looked up, source: endogenous, PC12 cells (lysate or fixed cells)) MNGEADCPTDLEMAAPKGQDRWSQEDMLTLLECMKNNLPSNDSSKFKTTESHMDWEKVAFKDFSGDMCKLKWVEISNEVRKFRTLTELILDAQEHVKNPYKGKKLKKHPDFPKKPLTPYFRFFMEKRAKYAKLHPEMSNLDLTKILSKKYKELPEKKKMKYIQDFQREKQEFERNLARFREDHPDLIQNAKKSDIPEKPKTPQQLWYTHEKKVYLKVRPDATTKEVKDSLGKQWSQLSDKKRLKWIHKALEQRKEYEEIMRDYIQKHPELNISEEGITKSTLTKAERQLKDKFDGRPTKPPPNSYSLYCAELMANMKDVPSTERMVLCSQQWKLLSQKEKDAYHKKCDQKKKDYEVELLRFLESLPEEEQQRVLGEEKMLNINKKQTTSPASKKPSQEGGKGGSEKPKRPVSAMFIFSEEKRRQLQEERPELSESELTRLLARMWNDLSEKKKAKYKAREAALKAQSERKPGGEREDRGKLPESPKRAEEIWQQSVIGDYLARFKNDRVKALKAMEMTWNNMEKKEKLMWIKKAAEDQKRYERELSEMRAPPAATNSSKKMKFQGEPKKPPMNGYQKFSQELLSNGELNHLPLKERMVEIGSRWQRISQSQKEHYKKLAEEQQRQYKVHLDLWVKSLSPQDRAAYKEYISNKRKNMTKLRGPNPKSSRTTLQSKSESEEDDDEEDDDDDDEEEEEDDENGDSSEDGGDSSESSSEDESEDGDENEDDDDDEDDDEDDDEDEDNESEGSSSSSSSSGDSSDSDSN | ~36%
2 | B23 (also termed nucleophosmin, NPM1) (natural protein, rat (endogenous in PC12), UniProt P13084 1-292, looked up, B23 / nucleophosmin, endogenous in PC12 cells, detected with a mouse monoclonal anti-B23 antibody; source: endogenous, PC12 cells (lysate or fixed cells)) MEDSMDMDMSPLRPQNYLFGCELKADKDYHFKVDNDENEHQLSLRTVSLGAGAKDELHIVEAEAMNYEGSPIKVTLATLKMSVQPTVSLGGFEITPPVVLRLKCGSGPVHISGQHLVAVEEDAESEDEDEEDVKLLGMSGKRSAPGGGNKVPQKKVKLDEDDDEDDEDDEDDEDDDDDDFDEEETEEKVPVKKSVRDTPAKNAQKSNQNGKDLKPSTPRSKGQESFKKQEKTPKTPKGPSSVEDIKAKMQASIEKGGSLPKVEAKFINYVKNCFRMTDQEAIQDLWQWRKSL | ~57%
3 | fibrillarin (natural protein, rat (endogenous in PC12), UniProt P22509 1-327, looked up, fibrillarin, endogenous in PC12 cells, detected with a mouse monoclonal anti-fibrillarin antibody; source: endogenous, PC12 cells (lysate or fixed cells)) MKPGFSPRGGGFGGRGGFGDRGGRGGGRGGRGGFGGGRGGFGGGGRGRGGGGGGFRGRGGGGGRGGGFQSGGGRGRGGGRGGKRGNQSGKNVMVEPHRHEGVFICRGKEDALVTKNLVPGESVYGEKRVSISEGDDKIEYRAWNPFRSKLAAAILGGVDQIHIKPGAKVLYLGAASGTTVSHVSDIVGPDGLVYAVEFSHRSGRDLINLAKKRTNIIPVIEDARHPHKYRMLIAMVDVIFADVAQPDQTRIVALNAHTFLRNGGHFVISIKANCIDSTASAEAVFASEVKKMQQENMKPQEQLTLEPYERDHAVVVGVYRPPPKAKN | ~65%
